± gives the standard deviation of the averaged measurements.
B1: library; a variant is named by its letters at N, in order (parent)
chain: GCUGUCACCGGUGUAUUACCCUAGUGGUCGACCGGUCUGAUGAGUCUNNNNNNAGACGAAACAGC

How the values were obtained:
hypoxanthine [1] = variants of: B1; assay: normalized RNA/DNA level with ligand (relative to sTRSVctl = 100) (log10 (% of sTRSVctl)); ligand: hypoxanthine (xanthine aptamer); higher = less ribozyme self-cleavage, higher mRNA level; details: ligand concentration (+) RNA-Seq: 5 mM, HEK293T, reporter: mCherry (pCS4076), ligand present: yes
How it was run: (§1)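 Total RNA, extracted with EDTA 72 h after HEK293T cells were transfected with 4 µg per 6-well well of reporter-linked ribozyme switch library plasmids, was reverse-transcribed, amplified, barcoded and sequenced. Ligand, if used, was added 1 h before transfection. RNA level was derived from RNA reads divided by DNA reads and normalized to a spiked-in non-cleaving sequence or to the top sequences. This was multiplied by 100 and log10-transformed, with the top set of 25 sequences and a ≥100 DNA read minimum.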

hypoxanthine [2] = variants of: B1; assay: normalized RNA/DNA level without ligand (relative to sTRSVctl = 100) (log10 (% of sTRSVctl)); ligand: hypoxanthine (xanthine aptamer); higher = less ribozyme self-cleavage, higher mRNA level; details: HEK293T, reporter: mCherry (pCS4076), ligand present: no
How it was run: as §1

Variant | normalized RNA/DNA level with ligand (log10) (hypoxanthine [1]) | normalized RNA/DNA level without ligand (log10) (hypoxanthine [2])
CAUACA | 1.9 ± 0.069 | 1.78 ± 0.051
CAUACC | 1.93 ± 0.023 | 1.891 ± 0.016
GUUCAG | 1.82 ± 0.054 | 1.55 ± 0.057
CUCAAG | 1.88 ± 0.0045 | 1.742 ± 0.0067
GAUAAC | 1.92 ± 0.079 | 1.712 ± 0.0033
CCGCGU | 1.97 ± 0.023 | 1.71 ± 0.064
GGAUAU | 1.9 ± 0.023 | 1.78 ± 0.028
ACCUUA | 1.94 ± 0.068 | 1.86 ± 0.03
UCGCGG | 1.93 ± 0.1 | 1.78 ± 0.037
CACCUC | 1.99 ± 0.081 | 1.969 ± 0.011
AUGUCC | 1.98 ± 0.11 | 1.884 ± 0.011
GCACGC | 1.96 ± 0.06 | 1.86 ± 0.043
ACGGCC | 1.96 ± 0.02 | 1.88 ± 0.029
AGAUAU | 1.88 ± 0.032 | 1.798 ± 0.015
CCUACG | 1.94 ± 0.073 | 1.9 ± 0.041
AUAGAG | 1.81 ± 0.037 | 1.31 ± 0.019
AUUGUU | 1.9265 ± 0.0005 | 1.8319 ± 0.00072
GUGAUU | 1.92 ± 0.0091 | 1.847 ± 0.0028
CGUGAG | 1.85 ± 0.082 | 1.75 ± 0.011
UCUACA | 1.94 ± 0.057 | 1.846 ± 0.017
ACAUCA | 1.96 ± 0.046 | 1.91 ± 0.029
GGCCUU | 1.975 ± 0.013 | 1.968 ± 0.011
GACUUU | 1.923 ± 0.017 | 1.91 ± 0.056

Variant | normalized RNA/DNA level with ligand (log10) (hypoxanthine [1]) | normalized RNA/DNA level without ligand (log10) (hypoxanthine [2])
ACUUCA | 1.95 ± 0.025 | 1.922 ± 0.013
AGCCGC | 1.9 ± 0.096 | 1.84 ± 0.0076
CUACUG | 1.942 ± 0.0056 | 1.925 ± 0.0027
AUGCCU | 1.958 ± 0.0056 | 1.818 ± 0.0027
AUGCCC | 1.97 ± 0.062 | 1.87 ± 0.048
CCCCUA | 1.98 ± 0.061 | 1.855 ± 0.0056
GCGCAU | 1.89 ± 0.026 | 1.55 ± 0.044
CCUGGG | 1.94 ± 0.027 | 1.508 ± 0.014
UGGAAC | 1.89 ± 0.032 | 1.78 ± 0.034
CUCUUG | 1.93 ± 0.045 | 1.87 ± 0.044
AAAAUC | 1.94 ± 0.023 | 1.92 ± 0.041
UGUCGA | 1.9 ± 0.061 | 1.65 ± 0.049
GUCUUG | 1.9 ± 0.086 | 1.52 ± 0.066
ACGACC | 1.97 ± 0.051 | 1.85 ± 0.02
UACUUA | 1.95 ± 0.026 | 1.88 ± 0.033
UCAAUA | 1.91 ± 0.049 | 1.76 ± 0.021
UCAAUG | 1.85 ± 0.035 | 1.702 ± 0.0043
CCGCUU | 1.96 ± 0.051 | 1.887 ± 0.0021
CACAUG | 1.91 ± 0.075 | 1.857 ± 0.017
AGUCCA | 1.95 ± 0.05 | 1.868 ± 0.015
GCAUGA | 1.94 ± 0.042 | 1.71 ± 0.029
UUUGUU | 1.952 ± 0.018 | 1.87 ± 0.027
UCUCGU | 1.96 ± 0.053 | 1.83 ± 0.045

Variant | normalized RNA/DNA level with ligand (log10) (hypoxanthine [1]) | normalized RNA/DNA level without ligand (log10) (hypoxanthine [2])
CGCAAU | 1.94 ± 0.015 | 1.77 ± 0.036
AUCUAU | 1.93 ± 0.032 | 1.83 ± 0.074
UGUCAC | 1.9615 ± 0.00089 | 1.885 ± 0.012
UACCAC | 1.88 ± 0.045 | 1.793 ± 0.016
CUCCUA | 1.96 ± 0.075 | 1.87 ± 0.055
CGUAAG | 1.95 ± 0.049 | 1.76 ± 0.022
CUGAUC | 1.98 ± 0.035 | 1.949 ± 0.019
CGCCGU | 1.986 ± 0.014 | 2 ± 0.043
CGCCGC | 1.97 ± 0.063 | 1.923 ± 0.0072
UCCGAA | 1.94 ± 0.0047 | 1.631 ± 0.0036
CAAUUC | 1.93 ± 0.07 | 1.87 ± 0.058
UUCAAC | 1.94 ± 0.044 | 1.873 ± 0.011
CCUUCU | 1.98 ± 0.08 | 1.95 ± 0.048
GCCGGC | 1.96 ± 0.066 | 1.762 ± 0.015
GGGGAC | 1.91 ± 0.068 | 1.613 ± 0.0032
UUGUUU | 2.039 ± 0.018 | 2.04 ± 0.042
GAUAGU | 1.88 ± 0.059 | 1.72 ± 0.034
AACACU | 1.92 ± 0.044 | 1.859 ± 0.018
AUAGCC | 1.936 ± 0.0032 | 1.82 ± 0.028
UUCACG | 1.93 ± 0.036 | 1.8 ± 0.031
CGCGCU | 1.92 ± 0.076 | 1.93 ± 0.062
CGCGCA | 1.97 ± 0.063 | 1.81 ± 0.036
GGGUUU | 1.951 ± 0.015 | 1.951 ± 0.0082

Variant | normalized RNA/DNA level with ligand (log10) (hypoxanthine [1]) | normalized RNA/DNA level without ligand (log10) (hypoxanthine [2])
UGUUAG | 1.884 ± 0.0019 | 1.69 ± 0.038
GACCUA | 1.935 ± 0.01 | 1.85 ± 0.033
GUCGUG | 1.86 ± 0.043 | 1.37 ± 0.018
UACAUA | 1.93 ± 0.038 | 1.86 ± 0.024
UAUGAG | 1.86 ± 0.046 | 1.54 ± 0.046
UGAGUA | 1.902 ± 0.015 | 1.81 ± 0.091
AUAAUC | 1.939 ± 0.0048 | 1.884 ± 0.0055
CCUAAU | 1.94 ± 0.12 | 1.86 ± 0.1
CCUAAC | 1.93 ± 0.042 | 1.825 ± 0.0078
CCGCCU | 1.94 ± 0.025 | 1.95 ± 0.051
CUCGUU | 1.94 ± 0.019 | 2.03 ± 0.063
CUGGAU | 1.94 ± 0.051 | 1.75 ± 0.072
CCUUUU | 1.966 ± 0.019 | 1.892 ± 0.018
CCUUUC | 2 ± 0.1 | 1.98 ± 0.046
CCGGUA | 1.93 ± 0.034 | 1.863 ± 0.0044
GCUCCG | 1.88 ± 0.12 | 1.38 ± 0.075
AGUGCC | 1.94 ± 0.033 | 1.838 ± 0.0064
CAUAAG | 1.92 ± 0.016 | 1.71 ± 0.019
GGUUCA | 1.916 ± 0.0031 | 1.89 ± 0.046
GUCCCA | 1.94 ± 0.02 | 1.9 ± 0.041
CCACAA | 1.9686 ± 0.0014 | 1.8 ± 0.033
CCACAG | 1.92 ± 0.04 | 1.66 ± 0.059
AUGGAU | 1.912 ± 0.0082 | 1.6566 ± 0.0015

Variant | normalized RNA/DNA level with ligand (log10) (hypoxanthine [1]) | normalized RNA/DNA level without ligand (log10) (hypoxanthine [2])
CAAGUG | 1.92 ± 0.026 | 1.81 ± 0.042
AUUUAG | 1.85 ± 0.033 | 1.55 ± 0.053
AUUUAU | 1.9 ± 0.039 | 1.907 ± 0.019
AGUACC | 1.94 ± 0.069 | 1.87 ± 0.03
ACCACU | 1.96 ± 0.023 | 1.92 ± 0.048
GGACGC | 1.86 ± 0.044 | 1.49 ± 0.12
CCGCAC | 1.964 ± 0.013 | 1.754 ± 0.0073
CUGAGC | 1.947 ± 0.0077 | 1.79 ± 0.065
GUCCAU | 1.95 ± 0.028 | 1.852 ± 0.0035
UUUAGA | 1.93 ± 0.054 | 1.75 ± 0.035
CCGAGU | 1.89 ± 0.03 | 1.57 ± 0.029
AUCGGU | 1.91 ± 0.02 | 1.6043 ± 0.0014
UGACCU | 2.004 ± 0.012 | 1.92 ± 0.021
GUCACU | 1.977 ± 0.014 | 1.91 ± 0.041
UCCACU | 1.957 ± 0.0089 | 1.99 ± 0.07
UCGUAU | 1.92 ± 0.045 | 1.61 ± 0.024
UGCGCU | 1.966 ± 0.0057 | 1.93 ± 0.023
UGCUGC | 1.972 ± 0.011 | 1.958 ± 0.006
AUACGU | 1.91 ± 0.032 | 1.84 ± 0.042
UCGCUA | 1.96 ± 0.037 | 1.725 ± 0.0084
CAGUUU | 1.95 ± 0.053 | 1.79 ± 0.018
AGGGGA | 1.908 ± 0.015 | 1.61 ± 0.053
UCAAGG | 1.936 ± 0.0091 | 1.79 ± 0.026
